First the molecules themselves.
T1: human FcγRIIa on THP-1 cells (human, UniProt P12318 34-317)
T1 sequence (looked up): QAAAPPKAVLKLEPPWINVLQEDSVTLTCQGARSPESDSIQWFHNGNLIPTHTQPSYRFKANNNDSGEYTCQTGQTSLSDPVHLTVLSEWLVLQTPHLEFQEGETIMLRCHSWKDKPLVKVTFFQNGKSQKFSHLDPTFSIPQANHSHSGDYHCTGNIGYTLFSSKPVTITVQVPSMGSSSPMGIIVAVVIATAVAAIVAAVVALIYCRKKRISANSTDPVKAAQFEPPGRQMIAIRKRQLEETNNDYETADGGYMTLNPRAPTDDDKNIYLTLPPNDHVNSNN

B1: Fc-ΔG236 (other)
chain: DKTHTCPPCPAPELLGPSVFLFPPKPKDTLMISRTPEVTCVVVDVSHEDPEVKFNWYVDGVEVHNAKTKPREEQYNSTYRVVSVLTVLHQDWLNGKEYKCKVSNKALPAPIEKTISKAKGQPREPQVYTLPPSRDELTKNQVSLTCLVKGFYPSDIAVEWESNGQPENNYKTTPPVLDSDGSFFLYSKLTVDKSRWQQGNVFSCSVMHEALHNHYTQKSLSLSPGK
B2: Fc-ΔG236-MST-HN (other)
chain: B1 chain with M31Y, S33T, T35E, H212K, N213F
B3: Fc-G236A-MST-HN (other, human, UniProt P01857-1 104-330, looked up)
chain: DKTHTCPPCPAPELLAGPSVFLFPPKPKDTLYITREPEVTCVVVDVSHEDPEVKFNWYVDGVEVHNAKTKPREEQYNSTYRVVSVLTVLHQDWLNGKEYKCKVSNKALPAPIEKTISKAKGQPREPQVYTLPPSRDELTKNQVSLTCLVKGFYPSDIAVEWESNGQPENNYKTTPPVLDSDGSFFLYSKLTVDKSRWQQGNVFSCSVMHEALKFHYTQKSLSLSPGK
notes: domain: Fc fragment; EU numbering
B4: human FcγRIIb (receptor, UniProt P31994 43-217, looked up)
chain: TPAAPPKAVLKLEPQWINVLQEDSVTLTCRGTHSPESDSIQWFHNGNLIPTHTQPSYRFKANNNDSGEYTCQTGQTSLSDPVHLTVLSEWLVLQTPHLEFQEGETIVLRCHSWKDKPLVKVTFFQNGKSKKFSRSDPNFSIPQANHSHSGDYHCTGNIGYTLYSSKPVTITVQAP
modifications: C-terminal biotin
notes: Bought, C-terminally biotinylated; captured on a streptavidin sensor; also called hFcγRIIb
B5: human FcγRIIIb-NA1 (receptor, UniProt O75015 17-200, looked up)
chain: GMRTEDLPKAVVFLEPQWYRVLEKDSVTLKCQGAYSPEDNSTQWFHNENLISSQASSYFIDAATVDDSGEYRCQTNLSTLSDPVQLEVHVGWLLLQAPRWVFKEEDPIHLRCHSWKNTALHKVTYLQNGKDRKYFHHNSDFHIPKATLKDSGSYFCRGLVGSKNVSSETVNITITQGLAVSTIS
modifications: C-terminal biotin
notes: In-house, C-terminally biotinylated; captured on a streptavidin sensor; also called hFcγRIIIb-NA1
B6: Fc-MST-HN (other, human, UniProt P01857-1 104-330, looked up)
chain: B3 chain with A16G
notes: domain: Fc fragment; MST-HN = M252Y S254T T256E H433K N434F (EU numbering); also called IgG1-Fc MST-HN
B7: human FcγRIIa-131R (receptor, UniProt P12318 34-218, looked up)
chain: QAAAPPKAVLKLEPPWINVLQEDSVTLTCQGARSPESDSIQWFHNGNLIPTHTQPSYRFKANNNDSGEYTCQTGQTSLSDPVHLTVLSEWLVLQTPHLEFQEGETIMLRCHSWKDKPLVKVTFFQNGKSQKFSRLDPTFSIPQANHSHSGDYHCTGNIGYTLFSSKPVTITVQVPSMGSSSPMGI
modifications: C-terminal biotin
notes: Bought, C-terminally biotinylated; captured on a streptavidin sensor
B8: human FcγRIIIb-NA2 (receptor, UniProt O75015 17-200, looked up)
chain: B5 chain with R20S, N49S, D66N, V90I
modifications: C-terminal biotin
notes: In-house, C-terminally biotinylated; captured on a streptavidin sensor; also called hFcγRIIIb-NA2
B9: human FcγRIIa-131H (receptor, UniProt P12318 34-218, looked up)
chain: B7 chain with R134H
modifications: C-terminal biotin
notes: as for B7

Experiment [1] deals with T2, soluble human FcRn (human, UniProt P55899 24-297; P61769 21-119).
T2 construct: Made in HEK293F cells from two vectors; also called sFcRn; not shown: C-terminal BirA deca-His-tag
T2 sequence (P55899 24-297, chain 1 of 2): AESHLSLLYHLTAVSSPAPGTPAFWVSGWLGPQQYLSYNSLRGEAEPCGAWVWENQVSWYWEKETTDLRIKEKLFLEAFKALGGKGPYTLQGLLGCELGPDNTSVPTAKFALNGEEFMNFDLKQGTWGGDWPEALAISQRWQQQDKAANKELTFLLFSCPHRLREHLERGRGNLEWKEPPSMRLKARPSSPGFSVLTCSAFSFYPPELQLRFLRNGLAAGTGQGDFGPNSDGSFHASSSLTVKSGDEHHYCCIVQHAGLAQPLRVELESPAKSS
T2 sequence (P61769 21-119, chain 2 of 2): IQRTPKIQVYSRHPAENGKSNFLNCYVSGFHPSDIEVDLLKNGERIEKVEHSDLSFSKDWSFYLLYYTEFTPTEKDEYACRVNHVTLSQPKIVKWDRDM
As to the kind of experiment: SPR (IBIS MX96), Fc fragment immobilised, soluble FcRn titrated, pH 6.0, equilibrium 1:1 fit. The procedure: (§1) Regeneration of the sensor surface between the cycles was performed by injection of 10 mM Gly-HCl pH 2.4. Affinity calculations were carried out by performing an equilibrium analysis interpolating to an Rmax of 200 to 600, depending on the assay, and fitting a 1:1 Langmuir binding model, assuming equilibrium to be reached after 360s of IgG-Fc containing analyte injections. Analysis and calculations were performed using Scrubber Software Version 2 (BioLogic Software), Excel (Microsoft) and Graphpad Prism (Prism).
(§2) Sensorgrams of a representative of three independent affinity measurements were used to determine the binding of the human IgG1-Fc variants to human FcγRs and human FcRn at pH 7.4 and pH 6.0. […] KD values were derived by performing an equilibrium analysis and fitting a 1:1 Langmuir binding model. […] No binding was marked as non-determinable (n.d.). Data are presented in Tables S1-S4 as mean±standard deviation.

Experiment [2] has as its target T2, soluble human FcRn. The experiment can be described thus: SPR (IBIS MX96), Fc fragment immobilised, soluble FcRn titrated, pH 7.4, equilibrium 1:1 fit. The procedure:
as §1, §2

The target of experiment [3] is T1, human FcγRIIa on THP-1 cells. The experiment can be described thus: cell-based or functional assay.
The target in experiment [4] is human FcRn, endogenous, in THP-1 cells and blood monocytes (human, UniProt P55899 24-365; P61769 21-119). As to the kind of experiment: cell-based or functional assay.
Sequence of human FcRn, endogenous, in THP-1 cells and blood monocytes (P55899 24-365 limits assumed, chain 1 of 2): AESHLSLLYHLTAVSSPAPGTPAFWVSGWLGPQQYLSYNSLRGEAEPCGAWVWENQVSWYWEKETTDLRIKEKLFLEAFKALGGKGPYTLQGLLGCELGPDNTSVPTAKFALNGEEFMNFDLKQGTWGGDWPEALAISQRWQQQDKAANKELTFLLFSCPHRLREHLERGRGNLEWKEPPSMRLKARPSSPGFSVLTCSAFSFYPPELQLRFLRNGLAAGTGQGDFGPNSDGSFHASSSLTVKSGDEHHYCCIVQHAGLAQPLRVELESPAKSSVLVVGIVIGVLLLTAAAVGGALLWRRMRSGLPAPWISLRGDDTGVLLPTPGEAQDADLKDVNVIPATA
Sequence of human FcRn, endogenous, in THP-1 cells and blood monocytes (P61769 21-119 limits assumed, chain 2 of 2): as the sequence (P61769 21-119, chain 2 of 2) above
The target in the experiment “human FcγRIIa-131H” is B9. As to the kind of experiment: SPR, Fc fragments on captured FcγRs, pH 7.4. The protocol: as §1, with “The sensor surface was regenerated between the cycles by subsequent injections of 20 mM Tris-HCl, 150 mM NaCl pH 8.8 and 20 mM H₃PO₄ pH 2.4. […] Regeneration” for “Regeneration”
(Surface plasmon resonance follows binding to a sensor surface in real time, without labels.)

The experiment “human FcγRIIa-131R” concerns the target B7. The experiment can be described thus: SPR, Fc fragments on captured FcγRs, pH 7.4. The protocol: as §1, with “The sensor surface was regenerated between the cycles by subsequent injections of 20 mM Tris-HCl, 150 mM NaCl pH 8.8 and 20 mM H₃PO₄ pH 2.4. […] Regeneration” for “Regeneration”
Another experiment concerns the target T3, human FcγRIa (human, UniProt P12314 16-288).
T3 construct: Bought, C-terminally His-tagged; captured on the sensor by biotinylated anti-His mIgG1; also called hFcγRIa; not shown: C-terminal His tag
The experiment can be described thus: SPR (IBIS MX96), FcγR captured on sensor, Fc fragment titrated, pH 7.4, equilibrium 1:1 fit. The procedure: as §1, with “The sensor surface was regenerated between the cycles by subsequent injections of 20 mM Tris-HCl, 150 mM NaCl pH 8.8 and 20 mM H₃PO₄ pH 2.4. […] Regeneration” for “Regeneration”

The target of the experiment “Fc-MST-HN” is B6. Described as above. The protocol:
as §1, with “The sensor surface was regenerated between the cycles by subsequent injections of 20 mM Tris-HCl, 150 mM NaCl pH 8.8 and 20 mM H₃PO₄ pH 2.4. […] Regeneration” for “Regeneration”

The target of the experiment “Fc-G236A-MST-HN” is B3. Described as above. The protocol:
as §1, with “The sensor surface was regenerated between the cycles by subsequent injections of 20 mM Tris-HCl, 150 mM NaCl pH 8.8 and 20 mM H₃PO₄ pH 2.4. […] Regeneration” for “Regeneration”

The target in the next experiment is T4, Fc-IHH (human, UniProt P01857-1 104-330 = IgG part, I253A; H310A; H435A).
T4 construct: domain: Fc fragment; IHH = I253A H310A H435A (EU numbering); also called IgG1-Fc-IHH
Described as above. The procedure:
as §1, with “The sensor surface was regenerated between the cycles by subsequent injections of 20 mM Tris-HCl, 150 mM NaCl pH 8.8 and 20 mM H₃PO₄ pH 2.4. […] Regeneration” for “Regeneration”

The target in a further experiment is T5, Fc-G236A (human, UniProt P01857-1 104-330 = IgG part, G236A).
T5 construct: domain: Fc fragment; Positions in EU numbering; also called IgG1-Fc G236A
Described as above. The protocol: as §1, with “The sensor surface was regenerated between the cycles by subsequent injections of 20 mM Tris-HCl, 150 mM NaCl pH 8.8 and 20 mM H₃PO₄ pH 2.4. […] Regeneration” for “Regeneration”

In a further experiment the target is T6, Fc-WT (human, UniProt P01857-1 104-330 = IgG part, limits assumed).
T6 construct: domain: Fc fragment; Fc-only fragment made by Evitria; also called IgG1-Fc wild-type; human IgG1-Fc fragment WT
The description is as above. The protocol: as §1, with “The sensor surface was regenerated between the cycles by subsequent injections of 20 mM Tris-HCl, 150 mM NaCl pH 8.8 and 20 mM H₃PO₄ pH 2.4. […] Regeneration” for “Regeneration”

For the experiment “human FcγRIIIb-NA1”, the target named is B5. As to the kind of experiment: SPR, Fc fragments on captured FcγRs, pH 7.4. The protocol: as §1, with “The sensor surface was regenerated between the cycles by subsequent injections of 20 mM Tris-HCl, 150 mM NaCl pH 8.8 and 20 mM H₃PO₄ pH 2.4. […] Regeneration” for “Regeneration”
Another experiment concerns the target T7, human FcγRIIIa-158F (human, UniProt P08637 17-208, C-terminal biotin).
T7 construct: Bought, C-terminally biotinylated; captured on a streptavidin sensor; also called hFcγRIIIa-158F
The experiment can be described thus: SPR, Fc fragments on captured FcγRs, pH 7.4. The procedure:
as §1, with “The sensor surface was regenerated between the cycles by subsequent injections of 20 mM Tris-HCl, 150 mM NaCl pH 8.8 and 20 mM H₃PO₄ pH 2.4. […] Regeneration” for “Regeneration”

The target in the experiment “human FcγRIIIb-NA2” is B8. The experiment can be described thus: SPR, Fc fragments on captured FcγRs, pH 7.4. The protocol:
as §1, with “The sensor surface was regenerated between the cycles by subsequent injections of 20 mM Tris-HCl, 150 mM NaCl pH 8.8 and 20 mM H₃PO₄ pH 2.4. […] Regeneration” for “Regeneration”

For a further experiment, the target named is T8, human FcγRIIIa-158V (human, UniProt P08637 17-208, C-terminal biotin).
T8 construct: Bought, C-terminally biotinylated; captured on a streptavidin sensor; also called hFcγRIIIa-158V
The experiment can be described thus: SPR, Fc fragments on captured FcγRs, pH 7.4. The protocol:
as §1, with “The sensor surface was regenerated between the cycles by subsequent injections of 20 mM Tris-HCl, 150 mM NaCl pH 8.8 and 20 mM H₃PO₄ pH 2.4. […] Regeneration” for “Regeneration”

Numbering of substitutions follows the chain as printed. Numbers in names are those of the source. A value given as a limit tells only on which side of the number the result lay.

T3 sequence (P12314 16-288 limits assumed): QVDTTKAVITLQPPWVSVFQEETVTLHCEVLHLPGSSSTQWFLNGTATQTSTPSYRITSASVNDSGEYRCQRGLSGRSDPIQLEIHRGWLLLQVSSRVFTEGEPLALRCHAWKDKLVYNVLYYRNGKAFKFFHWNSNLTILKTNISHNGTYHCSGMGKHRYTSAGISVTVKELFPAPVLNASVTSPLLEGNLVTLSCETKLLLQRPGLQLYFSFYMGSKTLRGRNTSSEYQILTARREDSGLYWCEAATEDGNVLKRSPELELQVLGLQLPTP

The molecule B1 displayed a dissociation constant (Kd) with soluble human FcRn [1] of 130 nM.
As for B2, the figures for the Kd with soluble human FcRn [1] and with soluble human FcRn [2] were 15.4 nM and 1420 nM, respectively.
As for B3, the “Fold-intensity of intracellular accumulation compared to Fc-WT (Image Stream, THP-1 cells)” value in experiment [3] and in experiment [4] was 1.87 fold of Fc-WT each time. The Kd in the experiment with soluble human FcRn [1] amounted to 23.4 nM; with soluble human FcRn [2], 1340 nM; in the experiment with human FcγRIa it was 10.8 nM. Moreover, the figures for the “fold increase in affinity compared to Fc-MST-HN” value with human FcγRIIa-131H and in the experiment with human FcγRIIa-131R were ~9 fold and ~6 fold, respectively. Besides, the “fold increase in binding compared to Fc-WT” value with human FcγRIIa-131H and with human FcγRIIa-131R was 2 fold each time.
B4: the Kd with Fc-MST-HN, in the experiment with Fc-G236A-MST-HN, with Fc-IHH and with Fc-G236A was > 2000 nM throughout.
Regarding B5, the Kd in the experiment with Fc-MST-HN, with Fc-G236A-MST-HN, with Fc-WT, in the experiment with Fc-IHH and with Fc-G236A was > 2000 nM each time.
Regarding B6, the Kd came out at 18.9 nM with soluble human FcRn [1], 1410 nM with soluble human FcRn [2] and 5.9 nM in the experiment with human FcγRIa. The “fold reduction in binding compared to Fc-WT” value with human FcγRIIIb-NA1, with human FcγRIIa-131H, with human FcγRIIIa-158F, in the experiment with human FcγRIIIb-NA2, with human FcγRIIIa-158V and with human FcγRIIa-131R was ≥ 3 fold in each case.
With B7, the Kd with Fc-MST-HN is 1640 nM; in the experiment with Fc-G236A-MST-HN, 269 nM; with Fc-IHH it was > 2000 nM; with Fc-G236A it was 166 nM.
With B8, the Kd with Fc-MST-HN, in the experiment with Fc-G236A-MST-HN, with Fc-WT, with Fc-IHH and in the experiment with Fc-G236A was > 2000 nM in each case.
On to B9, for which the Kd in the experiment with Fc-MST-HN was 1650 nM; with Fc-G236A-MST-HN, 189 nM; in the experiment with Fc-IHH, > 2000 nM; with Fc-G236A, 91.1 nM.

By Kd is commonly meant a measure of binding affinity in units of concentration. A low value points to tighter binding.

The values above are taken from patent publication US20250101111A1 (ARGENX, published 2025).
